Laboratory results as given in publication PMC10385607 (2023).

T1: Human ALCAM (28–501)-6xhistidine tag (human, UniProt Q13740 28-501)
T1 chain: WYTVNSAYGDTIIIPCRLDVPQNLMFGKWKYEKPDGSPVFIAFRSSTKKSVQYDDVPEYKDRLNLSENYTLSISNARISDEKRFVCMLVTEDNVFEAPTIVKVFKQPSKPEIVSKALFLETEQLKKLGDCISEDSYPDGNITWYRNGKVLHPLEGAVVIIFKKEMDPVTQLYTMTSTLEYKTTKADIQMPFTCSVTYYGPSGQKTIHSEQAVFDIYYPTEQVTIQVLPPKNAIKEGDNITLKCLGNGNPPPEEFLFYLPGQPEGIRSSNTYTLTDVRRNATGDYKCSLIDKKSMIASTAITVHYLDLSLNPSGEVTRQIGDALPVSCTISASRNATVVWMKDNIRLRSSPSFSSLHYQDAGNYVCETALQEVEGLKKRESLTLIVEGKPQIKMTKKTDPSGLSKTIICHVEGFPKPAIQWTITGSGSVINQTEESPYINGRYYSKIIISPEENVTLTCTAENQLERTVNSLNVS


What was measured:
[1] = target: T1, Human ALCAM (28–501)-6xhistidine tag; test: SPR
[2] = target: T1, Human ALCAM (28–501)-6xhistidine tag; test: ELISA; competition with CD6-Fc
[3] = target: T1, Human ALCAM (28–501)-6xhistidine tag; test: SPR

Row | Binder | Kd [1] | IC50 [2] | koff [3]
1 | scFv V200G1 (scFv, V domains shown) VH: not shown VL: SSVLTQPPSVSVAPGQTARITCQGDSLRSGYASWYQQKPGQAPVLVVYGKTGRPSGIPERFSGSSSGNTATLTISRVEAGDEADYYCNSSPPFSAEVVFGGGTKLTVL | 2.52 nM | 31.3 nM | 
2 | scFv V2D7 (scFv, V domains shown) VH: not shown VL: SSVLTQPPSVSVAPGQTARITCQGDSLRSGYASWYQQKPGQAPVLVVYGKNNRPSGIPERFSGSSSGNTATLTISRVEAGDEADYYCNSSPPFSAEVVFGGGTKLTVL | 2.62 nM |  | 0.000127 s⁻¹

Next, values leading:

Row | Kd [1] | IC50 [2] | koff [3] | Binder
3 | 5.08 nM | 29.2 nM | 9.12e-05 s⁻¹ | scFv V20C10NC (scFv, V domains shown) VH: EVQLVESGGGLVQPGGSLRLSCAASGFTFSTGAMSWVRQAPGKGLEWVSAISGTGGTTYYADSVKGRFTISRDNSKNTLYLQMNSLRAEDTAVYYCAKGYVAFDYWGQGTLVTVSS VL: SSVLTQPPSVSVAPGQTARITCQGDSLRSGYASWYQQKPGQAPVLVVYPKMSRPSGIPERFSGSSSGNTATLTISRVEAGDEADYYCNSSPPFSAEVVFGGGTKLTVL
4 | 12.7 nM | 69.2 nM | 0.0011 s⁻¹ | scFv OPT (scFv, V domains shown) VH: not shown VL: SSVLTQPPSVSVAPGQTARITCQGDSLRSYYASWYQQKPGQAPVLVVYGKNNRPSGIPERFSGSSSGNTATLTISRVEAGDEADYYCNSSPPFSAEVVFGGGTKLTVL
5 |  |  | 0.00114 s⁻¹ | scFv IF8 (scFv, V domains shown) VH: not shown VL: SSELTQDPAVSVALGQTVRITCQGDSLRSYYASWYQQKPGQAPVLVIYGKNNRPSGIPDRFSGSSSGNTASLTITGAQAEDEADYYCNSSPPFSAEVVFGGGTKLTVL
